Columns and labels:
Experiment in all cases: SPR, antibody captured, C2 as analyte;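 note: biacore SPR at 37 °C, anti-C2 mAbs captured via goat anti-human IgG on CM5 chips, double-referenced sensorgrams fit to a 1:1 kinetic or steady-state model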
human C2 N380A = target: T1, human C2 N380A (human, UniProt P06681 21-752)
T1 sequence: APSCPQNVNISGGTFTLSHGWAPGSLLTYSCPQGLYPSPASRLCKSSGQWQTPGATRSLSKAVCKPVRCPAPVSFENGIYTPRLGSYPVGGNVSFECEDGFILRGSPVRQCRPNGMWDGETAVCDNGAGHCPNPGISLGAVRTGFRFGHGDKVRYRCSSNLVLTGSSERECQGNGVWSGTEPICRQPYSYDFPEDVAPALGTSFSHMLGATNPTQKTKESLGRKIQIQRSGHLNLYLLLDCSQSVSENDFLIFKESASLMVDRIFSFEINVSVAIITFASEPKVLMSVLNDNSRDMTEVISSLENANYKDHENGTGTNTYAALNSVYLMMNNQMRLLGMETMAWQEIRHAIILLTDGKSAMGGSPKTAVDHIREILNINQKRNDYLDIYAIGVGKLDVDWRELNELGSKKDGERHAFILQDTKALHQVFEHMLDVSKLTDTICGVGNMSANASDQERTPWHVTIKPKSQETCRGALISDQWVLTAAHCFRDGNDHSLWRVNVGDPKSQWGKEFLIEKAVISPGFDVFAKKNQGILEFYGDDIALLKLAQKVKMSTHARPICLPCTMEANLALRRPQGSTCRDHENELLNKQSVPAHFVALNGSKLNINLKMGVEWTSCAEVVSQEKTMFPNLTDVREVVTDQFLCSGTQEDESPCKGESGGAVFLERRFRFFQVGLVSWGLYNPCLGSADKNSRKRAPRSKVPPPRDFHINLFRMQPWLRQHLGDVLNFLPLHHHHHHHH

human C2 K415A = target: T2, human C2 K415A (human, UniProt P06681 21-752)
T2 sequence: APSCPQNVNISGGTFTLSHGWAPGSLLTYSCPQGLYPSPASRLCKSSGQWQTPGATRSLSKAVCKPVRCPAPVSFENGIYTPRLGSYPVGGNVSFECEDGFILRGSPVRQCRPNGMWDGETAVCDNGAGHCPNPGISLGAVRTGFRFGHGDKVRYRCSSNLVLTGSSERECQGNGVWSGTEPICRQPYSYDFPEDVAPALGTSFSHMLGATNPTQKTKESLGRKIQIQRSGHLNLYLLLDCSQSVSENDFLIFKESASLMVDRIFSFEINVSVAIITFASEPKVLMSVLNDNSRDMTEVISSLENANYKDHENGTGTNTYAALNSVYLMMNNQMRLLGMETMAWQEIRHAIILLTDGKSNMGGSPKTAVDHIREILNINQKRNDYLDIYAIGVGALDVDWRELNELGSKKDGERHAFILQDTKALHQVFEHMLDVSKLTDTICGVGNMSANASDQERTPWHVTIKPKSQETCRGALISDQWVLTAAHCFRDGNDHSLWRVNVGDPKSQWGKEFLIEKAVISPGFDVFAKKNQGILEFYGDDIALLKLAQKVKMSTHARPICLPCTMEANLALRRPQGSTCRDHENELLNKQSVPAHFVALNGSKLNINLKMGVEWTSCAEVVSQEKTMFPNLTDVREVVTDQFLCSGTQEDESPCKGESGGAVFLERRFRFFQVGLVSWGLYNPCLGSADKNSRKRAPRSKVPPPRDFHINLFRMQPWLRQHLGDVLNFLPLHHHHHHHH

human C2 M648A = target: T3, human C2 M648A (human, UniProt P06681 21-752)
T3 sequence: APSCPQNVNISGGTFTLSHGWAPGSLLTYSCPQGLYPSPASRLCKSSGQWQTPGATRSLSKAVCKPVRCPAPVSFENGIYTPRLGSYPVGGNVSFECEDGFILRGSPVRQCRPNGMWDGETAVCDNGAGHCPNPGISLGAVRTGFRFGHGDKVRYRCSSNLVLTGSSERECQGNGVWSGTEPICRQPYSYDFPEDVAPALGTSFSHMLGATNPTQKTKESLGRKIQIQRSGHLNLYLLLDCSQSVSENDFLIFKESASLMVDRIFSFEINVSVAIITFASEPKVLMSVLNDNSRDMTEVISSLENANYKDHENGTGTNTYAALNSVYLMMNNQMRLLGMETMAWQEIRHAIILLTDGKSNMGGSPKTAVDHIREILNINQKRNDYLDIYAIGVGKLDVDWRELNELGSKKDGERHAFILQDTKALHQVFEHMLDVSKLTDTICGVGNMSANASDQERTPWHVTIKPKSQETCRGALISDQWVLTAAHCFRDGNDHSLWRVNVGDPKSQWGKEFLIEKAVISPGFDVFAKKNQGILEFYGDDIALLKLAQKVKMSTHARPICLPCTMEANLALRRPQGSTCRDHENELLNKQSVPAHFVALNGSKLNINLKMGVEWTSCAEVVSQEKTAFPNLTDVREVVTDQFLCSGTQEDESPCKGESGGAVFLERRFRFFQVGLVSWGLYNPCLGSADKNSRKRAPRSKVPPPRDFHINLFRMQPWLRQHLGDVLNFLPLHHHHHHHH

human C2 R688A = target: T4, human C2 R688A (human, UniProt P06681 21-752)
T4 sequence: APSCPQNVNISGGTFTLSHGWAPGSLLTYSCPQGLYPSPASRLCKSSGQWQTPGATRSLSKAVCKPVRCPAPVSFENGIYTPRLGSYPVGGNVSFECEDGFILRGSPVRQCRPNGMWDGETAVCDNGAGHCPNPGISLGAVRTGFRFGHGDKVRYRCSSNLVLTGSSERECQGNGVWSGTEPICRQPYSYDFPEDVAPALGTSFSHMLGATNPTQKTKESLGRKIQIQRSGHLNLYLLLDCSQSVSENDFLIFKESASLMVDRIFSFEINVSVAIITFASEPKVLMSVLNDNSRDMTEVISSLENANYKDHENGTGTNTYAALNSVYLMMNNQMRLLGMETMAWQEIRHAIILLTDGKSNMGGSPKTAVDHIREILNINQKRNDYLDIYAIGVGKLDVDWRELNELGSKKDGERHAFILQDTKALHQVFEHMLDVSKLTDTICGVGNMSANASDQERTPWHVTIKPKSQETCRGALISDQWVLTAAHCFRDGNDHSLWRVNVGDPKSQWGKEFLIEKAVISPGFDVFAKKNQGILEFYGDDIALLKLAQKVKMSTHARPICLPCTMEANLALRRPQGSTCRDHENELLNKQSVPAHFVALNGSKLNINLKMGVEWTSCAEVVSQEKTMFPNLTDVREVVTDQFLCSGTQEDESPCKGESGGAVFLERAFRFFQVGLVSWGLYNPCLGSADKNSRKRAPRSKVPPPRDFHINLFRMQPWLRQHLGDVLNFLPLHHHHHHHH

B1: RF16-226 (antibody, human IgG4 S228P, lambda)
heavy: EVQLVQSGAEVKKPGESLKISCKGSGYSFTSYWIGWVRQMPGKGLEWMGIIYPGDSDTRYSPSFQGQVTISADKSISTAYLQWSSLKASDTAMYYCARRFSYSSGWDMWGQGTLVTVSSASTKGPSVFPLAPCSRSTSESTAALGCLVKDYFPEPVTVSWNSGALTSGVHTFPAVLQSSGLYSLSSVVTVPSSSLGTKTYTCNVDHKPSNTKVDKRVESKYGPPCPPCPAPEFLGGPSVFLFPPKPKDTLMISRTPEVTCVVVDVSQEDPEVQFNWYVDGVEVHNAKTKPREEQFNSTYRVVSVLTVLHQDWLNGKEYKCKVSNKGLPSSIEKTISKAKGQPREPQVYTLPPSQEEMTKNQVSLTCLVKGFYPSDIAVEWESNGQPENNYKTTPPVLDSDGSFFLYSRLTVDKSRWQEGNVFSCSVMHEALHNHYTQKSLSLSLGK
light: SYELTQPPSVSVSPGQTARITCSGDALTSKYVAWYQQKSGLAPLLVIYEDTRRPSGIPAKFSGSSSGSVATLTISGAHGDDEADYYCYSTDASGHQRVFGGGTKLTVLSQPKAAPSVTLFPPSSEELQANKATLVCLISDFYPGAVTVAWKADGSPVKAGVETTKPSKQSNNKYAASSYLSLTPEQWKSHRSYSCQVTHEGSTVEKTVAPTECS
notes: pH-dependent anti-C2 antibody from a phage display library; also called WT
What does the source list for B1?
Kd (human C2 N380A): 15.1 nM; Kd (human C2 K415A): 11.7 nM; Kd (human C2 M648A): 203 nM; Kd (human C2 R688A): 25.3 nM
